Results published in article PMC8713289.

Key:
[1] = molecular target: Interferon alpha-2a (human) (UniProt P01563); assay: AUC; sedimentation velocity, 50000 rpm, histidine pH 5, 0 or 140 mM NaCl, 0.8, 0.4 and 0.2 mg/mL (A280 = 1, 0.5, 0.25); monomer with a dimer in fast equilibrium with higher oligomers
[2] = molecular target: Interferon alpha-2a (human) (UniProt P01563); assay: AUC; sedimentation velocity, 50000 rpm, histidine pH 7.5, 0 or 140 mM NaCl, 0.8, 0.4 and 0.2 mg/mL (A280 = 1, 0.5, 0.25); dimers and larger oligomers in concentration-dependent equilibrium

- stoichiometry N [1]: > 2 >=
- stoichiometry N [2]: 2
Substance: Interferon alpha-2a (from UniProt P01563 24-188) (natural protein)
